# Laboratory results as given in patent publication US20240279278A1, “NMU RECEPTOR 2 AGONISTS” (Boehringer Ingelheim International GmbH, priority 2023, published 2024).
# T1: human neuromedin U receptor 1 (human, UniProt Q9HB89 24-426)
# T1 sequence (looked up): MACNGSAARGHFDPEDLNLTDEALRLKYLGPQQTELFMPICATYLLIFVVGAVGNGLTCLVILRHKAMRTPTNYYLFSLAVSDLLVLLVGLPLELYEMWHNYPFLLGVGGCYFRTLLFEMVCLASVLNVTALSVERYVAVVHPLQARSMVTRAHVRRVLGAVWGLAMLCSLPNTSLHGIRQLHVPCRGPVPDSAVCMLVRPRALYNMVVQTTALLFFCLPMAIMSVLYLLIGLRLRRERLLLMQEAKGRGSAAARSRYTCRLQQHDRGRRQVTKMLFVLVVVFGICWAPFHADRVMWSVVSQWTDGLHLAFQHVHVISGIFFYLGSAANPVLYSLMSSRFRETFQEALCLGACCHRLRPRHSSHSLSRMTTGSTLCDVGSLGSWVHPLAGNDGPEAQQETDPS
# What was measured:
# [1] = cited from earlier work
# [2] = biological target: human neuromedin U receptor 2 (human, UniProt Q9GZQ4 1-415); test: cell-based or functional assay
# Chain of human neuromedin U receptor 2 (Q9GZQ4 whole entry): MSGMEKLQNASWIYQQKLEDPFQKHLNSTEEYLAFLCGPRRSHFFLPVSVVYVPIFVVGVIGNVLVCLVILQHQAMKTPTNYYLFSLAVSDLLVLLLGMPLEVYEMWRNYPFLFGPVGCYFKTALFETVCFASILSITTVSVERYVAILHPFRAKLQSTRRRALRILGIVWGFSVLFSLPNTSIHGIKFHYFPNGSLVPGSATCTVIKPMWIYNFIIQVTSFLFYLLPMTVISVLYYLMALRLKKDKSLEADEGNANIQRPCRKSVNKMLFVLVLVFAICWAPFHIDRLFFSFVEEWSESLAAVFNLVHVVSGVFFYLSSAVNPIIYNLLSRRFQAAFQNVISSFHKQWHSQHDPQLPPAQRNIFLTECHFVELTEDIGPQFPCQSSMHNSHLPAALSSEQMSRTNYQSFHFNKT
# [3] = biological target: T1, human neuromedin U receptor 1; test: cell-based or functional assay
Molecule,EC50 (activity as measured in Example 3) [2] [nM],EC50 (activity as measured in Example 3) [3] [nM],half-life after subcutaneous injection [1]
Neuromedin U [native NMU],–,–,less than 5 min
EEEXXXXXXXXXXXXXYFLXXPRG (HELM PEPTIDE1{[CCCCCCCCCCCCCCCCCC(=O)[*:2]].[gGlu].[gGlu].[gGlu].[Sar].[Sar].[Sar].[Sar].[Sar].[Sar].[Sar].[Sar].[Sar].[Sar].[Sar].[Sar].[O=C(CN1CCN(CCN[*:1])CC1)[*:2]].Y.F.[meL].[Nle].[Orn].P.R.G.[am]}$$$$V2.0; SMILES CCCCCCCCCCCCCCCCCC(=O)N[C@@H](CCC(=O)N[C@@H](CCC(=O)N[C@@H](CCC(=O)N(C)CC(=O)N(C)CC(=O)N(C)CC(=O)N(C)CC(=O)N(C)CC(=O)N(C)CC(=O)N(C)CC(=O)N(C)CC(=O)N(C)CC(=O)N(C)CC(=O)N(C)CC(=O)N(C)CC(=O)NCCN1CCN(CC(=O)N[C@@H](Cc2ccc(O)cc2)C(=O)N[C@@H](Cc2ccccc2)C(=O)N(C)[C@@H](CC(C)C)C(=O)N[C@@H](CCCC)C(=O)N[C@@H](CCCN)C(=O)N2CCC[C@H]2C(=O)N[C@@H](CCCNC(=N)N)C(=O)NCC(N)=O)CC1)C(=O)O)C(=O)O)C(=O)O) [C18A-gGlu3-Sar12-AEPipAc-Tyr-Phe-NMeLeu-Nle-Orn-Pro-Arg-Gly-NH2],0.047,0.37,–
EEEXXXXXXXXXXXXXXXXYFLXRPRG (HELM PEPTIDE1{[CCCCCCCCCCCCCCCCCC(=O)[*:2]].[gGlu].[gGlu].[gGlu].[Sar].[Sar].[Sar].[Sar].[Sar].[Sar].[Sar].[Sar].[Sar].[Sar].[Sar].[Sar].[Sar].[Sar].[Sar].[O=C(CN1CCN(CCN[*:1])CC1)[*:2]].Y.F.[meL].[Nle].R.P.R.G.[am]}$$$$V2.0; SMILES CCCCCCCCCCCCCCCCCC(=O)N[C@@H](CCC(=O)N[C@@H](CCC(=O)N[C@@H](CCC(=O)N(C)CC(=O)N(C)CC(=O)N(C)CC(=O)N(C)CC(=O)N(C)CC(=O)N(C)CC(=O)N(C)CC(=O)N(C)CC(=O)N(C)CC(=O)N(C)CC(=O)N(C)CC(=O)N(C)CC(=O)N(C)CC(=O)N(C)CC(=O)N(C)CC(=O)NCCN1CCN(CC(=O)N[C@@H](Cc2ccc(O)cc2)C(=O)N[C@@H](Cc2ccccc2)C(=O)N(C)[C@@H](CC(C)C)C(=O)N[C@@H](CCCC)C(=O)N[C@@H](CCCNC(=N)N)C(=O)N2CCC[C@H]2C(=O)N[C@@H](CCCNC(=N)N)C(=O)NCC(N)=O)CC1)C(=O)O)C(=O)O)C(=O)O) [C18A-gGlu3-Sar15-AEPipAc-Tyr-Phe-NMeLeu-Nle-Arg-Pro-Arg-Gly-NH2],0.046,0.2,–
EEEXXXXXXXXXXXXXYFLXXPRG (HELM PEPTIDE1{[O=C(O)CCCCCCCCCCCCCCCCC(=O)[*:2]].[gGlu].[gGlu].[gGlu].[Sar].[Sar].[Sar].[Sar].[Sar].[Sar].[Sar].[Sar].[Sar].[Sar].[Sar].[Sar].[O=C(CN1CCN(CCN[*:1])CC1)[*:2]].Y.F.L.[Nle].[Orn].P.R.G.[am]}$$$$V2.0; SMILES CCCC[C@H](NC(=O)[C@H](CC(C)C)NC(=O)[C@H](Cc1ccccc1)NC(=O)[C@H](Cc1ccc(O)cc1)NC(=O)CN1CCN(CCNC(=O)CN(C)C(=O)CN(C)C(=O)CN(C)C(=O)CN(C)C(=O)CN(C)C(=O)CN(C)C(=O)CN(C)C(=O)CN(C)C(=O)CN(C)C(=O)CN(C)C(=O)CN(C)C(=O)CN(C)C(=O)CC[C@H](NC(=O)CC[C@H](NC(=O)CC[C@H](NC(=O)CCCCCCCCCCCCCCCCC(=O)O)C(=O)O)C(=O)O)C(=O)O)CC1)C(=O)N[C@@H](CCCN)C(=O)N1CCC[C@H]1C(=O)N[C@@H](CCCNC(=N)N)C(=O)NCC(N)=O) [C18DA-gGlu3-Sar12-AEPipAc-Tyr-Phe-Leu-Nle-Orn-Pro-Arg-Gly-NH2],2.1,68,–

# The next lines start with results.
EC50 (activity as measured in Example 3) [2] [nM],EC50 (activity as measured in Example 3) [3] [nM],Molecule,half-life after subcutaneous injection [1]
0.054,0.33,EEEXXXXXXXXXXXXXXXXYFLXXPRG (HELM PEPTIDE1{[CCCCCCCCCCCCCCCCCCCC(=O)[*:2]].[gGlu].[gGlu].[gGlu].[Sar].[Sar].[Sar].[Sar].[Sar].[Sar].[Sar].[Sar].[Sar].[Sar].[Sar].[Sar].[Sar].[Sar].[Sar].[O=C(CN1CCN(CCN[*:1])CC1)[*:2]].Y.F.[meL].[Nle].[Orn].P.R.G.[am]}$$$$V2.0; SMILES CCCCCCCCCCCCCCCCCCCC(=O)N[C@@H](CCC(=O)N[C@@H](CCC(=O)N[C@@H](CCC(=O)N(C)CC(=O)N(C)CC(=O)N(C)CC(=O)N(C)CC(=O)N(C)CC(=O)N(C)CC(=O)N(C)CC(=O)N(C)CC(=O)N(C)CC(=O)N(C)CC(=O)N(C)CC(=O)N(C)CC(=O)N(C)CC(=O)N(C)CC(=O)N(C)CC(=O)NCCN1CCN(CC(=O)N[C@@H](Cc2ccc(O)cc2)C(=O)N[C@@H](Cc2ccccc2)C(=O)N(C)[C@@H](CC(C)C)C(=O)N[C@@H](CCCC)C(=O)N[C@@H](CCCN)C(=O)N2CCC[C@H]2C(=O)N[C@@H](CCCNC(=N)N)C(=O)NCC(N)=O)CC1)C(=O)O)C(=O)O)C(=O)O) [C20A-gGlu3-Sar15-AEPipAc-Tyr-Phe-NMeLeu-Nle-Orn-Pro-Arg-Gly-NH2],–
1.7,21,EEEXXXXXXXXXXXXXXXXYFLXRPRG (HELM PEPTIDE1{[O=C(O)CCCCCCCCCCCCCCCCC(=O)[*:2]].[gGlu].[gGlu].[gGlu].[Sar].[Sar].[Sar].[Sar].[Sar].[Sar].[Sar].[Sar].[Sar].[Sar].[Sar].[Sar].[Sar].[Sar].[Sar].[O=C(CN1CCN(CCN[*:1])CC1)[*:2]].Y.F.L.[Nle].R.P.R.G.[am]}$$$$V2.0; SMILES CCCC[C@H](NC(=O)[C@H](CC(C)C)NC(=O)[C@H](Cc1ccccc1)NC(=O)[C@H](Cc1ccc(O)cc1)NC(=O)CN1CCN(CCNC(=O)CN(C)C(=O)CN(C)C(=O)CN(C)C(=O)CN(C)C(=O)CN(C)C(=O)CN(C)C(=O)CN(C)C(=O)CN(C)C(=O)CN(C)C(=O)CN(C)C(=O)CN(C)C(=O)CN(C)C(=O)CN(C)C(=O)CN(C)C(=O)CN(C)C(=O)CC[C@H](NC(=O)CC[C@H](NC(=O)CC[C@H](NC(=O)CCCCCCCCCCCCCCCCC(=O)O)C(=O)O)C(=O)O)C(=O)O)CC1)C(=O)N[C@@H](CCCNC(=N)N)C(=O)N1CCC[C@H]1C(=O)N[C@@H](CCCNC(=N)N)C(=O)NCC(N)=O) [C18DA-gGlu3-Sar15-AEPipAc-Tyr-Phe-Leu-Nle-Arg-Pro-Arg-Gly-NH2],–
3,75,EEEXXXXXXXXXXXXXXXXYFLXXPRG (HELM PEPTIDE1{[O=C(O)CCCCCCCCCCCCCCCCCCC(=O)[*:2]].[gGlu].[gGlu].[gGlu].[Sar].[Sar].[Sar].[Sar].[Sar].[Sar].[Sar].[Sar].[Sar].[Sar].[Sar].[Sar].[Sar].[Sar].[Sar].[O=C(CN1CCN(CCN[*:1])CC1)[*:2]].Y.F.L.[Nle].[Orn].P.R.G.[am]}$$$$V2.0; SMILES CCCC[C@H](NC(=O)[C@H](CC(C)C)NC(=O)[C@H](Cc1ccccc1)NC(=O)[C@H](Cc1ccc(O)cc1)NC(=O)CN1CCN(CCNC(=O)CN(C)C(=O)CN(C)C(=O)CN(C)C(=O)CN(C)C(=O)CN(C)C(=O)CN(C)C(=O)CN(C)C(=O)CN(C)C(=O)CN(C)C(=O)CN(C)C(=O)CN(C)C(=O)CN(C)C(=O)CN(C)C(=O)CN(C)C(=O)CN(C)C(=O)CC[C@H](NC(=O)CC[C@H](NC(=O)CC[C@H](NC(=O)CCCCCCCCCCCCCCCCCCC(=O)O)C(=O)O)C(=O)O)C(=O)O)CC1)C(=O)N[C@@H](CCCN)C(=O)N1CCC[C@H]1C(=O)N[C@@H](CCCNC(=N)N)C(=O)NCC(N)=O) [C20DA-gGlu3-Sar15-AEPipAc-Tyr-Phe-Leu-Nle-Orn-Pro-Arg-Gly-NH2],–
